The results in this text go back to article PMC5818487.

Assay in all cases: SPR; Biacore T200; ICAM-1-Fc proteins captured on Protein A on a CM5 chip (1108 ± 108 RU); DBLβ domains flowed as twofold dilution series 1000-7.81 nM at 30 µl/min, 240 s association, 600 s dissociation; 10 mM HEPES pH 7.2, 250 mM NaCl, 0.05% Tween-20; global 1:1 model; 1 mg/ml ssDNA added to BC12a DBLβ
The target in experiment [1] is ICAM-1 Kilifi (K29M) Fc fusion protein (UniProt P05362).
Experiment [2] addresses ICAM-1 L42A mutant Fc fusion protein (UniProt P05362).
The target of experiment [3] is ICAM-1 L44A mutant Fc fusion protein (UniProt P05362).
Experiment [4] concerns the target ICAM-1 S22A mutant Fc fusion protein (UniProt P05362).
For experiment [5], the target named is ICAM-1 domains 1-5 Fc fusion protein (reference, wild type) (UniProt P05362).

As for “J1a DBLβ domain (PfEMP1 of the dominantly expressed var gene of isolate J1) (domain or fragment)”, the % ICAM-1^D1D5 binding was determined as 5.4% in experiment [1], 1.4% in experiment [2], 2.7% in experiment [3] and 10.9% in experiment [4]. In experiment [5], this substance yielded a Kd of 51.7 nM. The koff in experiment [5] worked out at 0.00153 s⁻¹. This substance also came in with an on-rate (kon) in experiment [5] of 29600 M⁻¹ s⁻¹.

In experiment [5], “BC12a DBLβ domain (PfEMP1 of the dominantly expressed var gene of isolate BC12) (domain or fragment)” gave a Kd of 197 nM, an off-rate (koff) of 0.000944 s⁻¹ and a kon of 4800 M⁻¹ s⁻¹.

As for “IT4var13 DBLβ domain (from UniProt A3R6S0 1-3274) (domain or fragment)”, the % ICAM-1^D1D5 binding in experiment [1] came to 8.9%; in experiment [2], 3.1%; in experiment [3], 10%; in experiment [4], 94.5%. Besides, the Kd in experiment [4] is 9.82 nM; in experiment [5] it was 3.45 nM. Besides, in experiment [5], the koff is 0.000125 s⁻¹. Further, the kon in experiment [5] was determined as 36100 M⁻¹ s⁻¹.
